# Test results taken from patent US20180326085A1 (Merck KGaA, published 2018).
# Legend:
# [1] = biological target: T1, c-MET and EGFR co-expressed on cells (human, UniProt P08581;P00533); test: flow cytometry, A549 cells (c-MET+ EGFR++)
# T1 construct: endogenous receptor on the cell surface; not a complex: two separate receptors on the same cell; used as target only for bispecific c-MET x EGFR molecules, whose cell staining cannot be split between the two arms; also called cells that carry both receptors: NCI-H441, EBC-1, A431, MKN-45, A549, HepG2 (cell line under assay)
# [2] = biological target: T1, c-MET and EGFR co-expressed on cells; test: flow cytometry, HepG2 cells (c-MET+ EGFR+)
# [3] = biological target: T1, c-MET and EGFR co-expressed on cells; test: flow cytometry, A431 cells (c-MET+ EGFR+++)
# c-MET on cells = biological target: T2, c-MET on cells (human, UniProt P08581); test: flow cytometry, SK-MEL2 cells (c-MET+ EGFR-)
# T2 construct: endogenous receptor on the cell surface; for A549 cells m4 is used; also called HGFR; on NCI-H441, EBC-1, A431, MKN-45, SK-MEL2 or HepG2 cells (cell line under assay)
# [4] = biological target: T1, c-MET and EGFR co-expressed on cells; test: flow cytometry, EBC-1 cells (c-MET+++ EGFR++)
# [5] = biological target: T1, c-MET and EGFR co-expressed on cells; test: flow cytometry, MKN-45 cells (c-MET+++ EGFR++)
# EGFR on cells = biological target: T3, EGFR on cells (human, UniProt P00533); test: flow cytometry at 300 nM on mixed EBC-1 and T47D (low EGFR, no c-MET) cells, anti-human Fc detection; T47D population
# T3 construct: endogenous receptor on the cell surface; for A549 cells m5 is used; also called on NCI-H441, EBC-1, A431, MKN-45, HepG2 or T47D cells (cell line under assay)
# Description: (A) EBC-1 as tumor model cell line with high to moderate c-MET and EGFR expression and T47D as epithelial model cell line with low EGFR expression and no c-MET expression were mixed in a ratio of 1:30. In order to distinguish the two cell lines, EBC-1 cells were stained with the green membrane dye PKH2. […] Antibody binding was detected by FITC-labeled anti-hu Fc secondary antibody. […] (B) In vitro selectivity was defined as the ratio of mean fluorescence intensity of the EBC-1 and the T47D cell population.
binder,measurement,setting,value
"B10v5x225-L (bispecific antibody, V domains shown, c-MET x EGFR SEED bispecific) VL (c-MET arm): EPVLTQPPSVSVAPGETATIPCGGDSLGSKIVHWYQQRPGQAPLLVVYDDAARPSGIPERFSGSKSGTTATLTISSVEAGDEADYFCQVYDYHSDVEVFGGGTKLTVLGQPKAA VH (c-MET arm): not shown VL (EGFR arm): DIQMTQSPSSLSASVGDRVTITCRASQSIGTNIHWYQQKPGKAPKLLIKYASESISGVPSRFSGSGYGTDFTLTISSLQPEDVATYYCQQNNNWPTTFGQGTKVEIK VH (EGFR arm): EVQLVQSGAEVKKPGASVKVSCKASGFSLTNYGVHWMRQAPGQGLEWIGVIWRGGNTDYNTPFTSRVTITSDKSTSTAYMELSSLRSEDTAVYYCARALTYYDYEFAYWGQGTLVTVSS",MFI at 100 nM,[1],249
same,MFI at 100 nM,[2],451
same,MFI at 100 nM,[3],847
same,MFI at 100 nM,c-MET on cells,341
same,MFI at 100 nM,[4],2040
same,MFI at 100 nM,[5],1220
same,binding result,EGFR on cells,binds
